Among the data in PMC7090148 (2020) are ratio to parent values, retold here.

For this assay, the target named is NTAP-tagged TRAPPC8. Briefly: co-IP (IP: anti-Myc, immunoblot). The note with it: 0.5% input, parent: 1. On the technique in general: Immunoblotting shows a protein as a band on a membrane.

Regarding “Mouse OFD1, wild type (from UniProt Q80Z25) S75F”, the ratio to parent was 0.7.
For “Mouse OFD1, wild type (from UniProt Q80Z25) G139S”, the ratio to parent was found to be 1.
As to “Mouse OFD1, wild type (from UniProt Q80Z25) S437R”, the ratio to parent was 1.02.
The value for “Mouse OFD1, wild type (from UniProt Q80Z25) A80T” was 1.04.
